Laboratory results as given in the RNAGym collection of RNA variant scans (doi:10.1073/pnas.2313332121).
This sample holds only a part of the variants without activity.

B1: TPR 5TU (parent)
chain: GGAUCUUCUCGAUCUAACAAAAAAGACAAAUCUGCCACAAAGCUUGAGAGCAUCUUCGGAUGCAGAGGCGGCAGCCUUCGGUGGCGCGAUAGCGCCAACGUUCUCAACUAUGACACGCAAAACGCGUGCUCCGUUGAAUGGAGUUUAUCAUG

Variants of: B1
Experiment: polymerase ribozyme fitness, log enrichment relative to wild type (log ratio); higher = more active; in vitro selection for triplet polymerase activity
Summary of the method: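 Each subunit of a heterodimeric triplet polymerase ribozyme was represented by a PCR-built, transcribed mutant library that underwent triplicate single-round in vitro selection with frozen incubation at −7 °C. Extended constructs were recovered by gel excision, streptavidin-bead capture and RT-PCR, and Illumina sequencing of input and output libraries kept genotypes with ≥10 input reads and ≥1 read per output. Fitness is the logarithm of genotype enrichment relative to wild-type enrichment, from inverse-variance-weighted replicate averages, with a logarithm base of 2.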

Compared with GGAUCUUCUCGAUCUAACAAAAAAGACAAAUCUGUCACAAAGCUUGAGAGCAUCUUCGGAUGCAGAGGCGGCAGCCUUCGGUGGCGCGAUAGCGCCAACGUUCUCAACUAUGACACCUAAAACGCGUGCUCCGUUGAAUGGAGUUUAUCAUG [C35U G117C C118U], GGAUCUUCUCGAUCUAACAAAAAAGACAAAUCUGUCACAAAGCUUGAGAGCAUCUUCGGAUGCAGAGGCGGCAGCCUUCGGUGGGGCGAUAGCGCCAACGUUCUCAACUAUGACACGCAAAACGCGUGCUCUGUUGAAUGGAGUUUAUCAUG [C35U C85G C132U] is lower in “polymerase ribozyme fitness (log ratio)” value: -1.01 for the first, -3.12 for the second.

Compared with GGAUCUUCUCGAUCUAACAAAAAAGACAAAUCUGUCACAAAGCUUGAGAGCAUCUUCGGAUGCAGAGGCGGCAGCCUUCGGUGUCGCGUUAGCGCCGACGUUCUCAACUAUGACACGCAAAACGCGUGCUCCGUUGAAUGGAAUUUAUCAUG [C35U G84U A89U A97G G143A], GGAUCUUCUCGAUCUAACAAAAAAGACAAAUCUGUCACAAAGCUUGAGAGCAUCUUCGGAUGCAGAGGCGGCAGCCUUCGGUGGCGCGAUAGGGCCAACGUUCUCAACUAUGACACGCAAAACGCGUGCUCCGUUGAAUGGAGUUUAUCAUG [C35U C93G] is lower in “polymerase ribozyme fitness (log ratio)” value: -2.66 for the first, -3.19 for the second.

First: GGAUCUUCUCGAUCUAACAAAAAAGACAAAUCUGUCACAAAGCUUGAGAGCAUCUUCGGAUGCAGAGGCGGUAGCCUUCGGGGGCGCGAUAGCGCUAACGUUCUCGACUAUAACACGCAAAACGCGUGCUCCGUUGAAUGGAGUUUAUCAUG [C35U C72U U82G C96U A106G G112A]
Second: GGAUCUUCUCGAUCUAACAAAAAAGACAAAUCUGUCACAAAGCUUGAGAGCAUCUUCGGAUGCAGAGGCGGCAGCCUUCGGUGGCGCGAUAGCGACAACGUUCUCAACUAUGACACGCAAAACGCGUGCUCCGUUGAAUGGAGUUUAUCAUG [C35U C95A]
The “polymerase ribozyme fitness (log ratio)” value of the first is lower: no more than -4.2 for the first, -0.608 for the second.

Compared with GGAUCUUCUCGAUCUAACAAAAAAGACAAAUCUGUCACAAAGCUUGAGAGCAUCUUCGGAUGCAGAGGCGGCAGCCUUCGGUGGCGCGAUAGCUCCAACGUUCUCAACUAUGACACGCAAAACGCGUGCUCCGUUGAAUGGAGUUUAUCAUG [C35U G94U], GGAUCUUCUCGAUCUAACAAAAAAGACAAAUCUGUCACAAAGCUUGAGAGCAUCUUCGGAUGCAGAGGCGGCAGCCUUCGGUGGCGGGAUAGCGCCAACGUUCUCAACUAUGACACGCAAAACGCGUGCUCCGUUGAAUGGAGUUUAUCAUG [C35U C87G] is lower in “polymerase ribozyme fitness (log ratio)” value: -0.729 for the first, -3.84 for the second.

GGAUCUUCUCGAUCUAACAAAAAAGACAAAUCUGUCACAAACCUUGAGAGCAUCUUCGGAUGCAGAGGCGGCAGCAUUCGGUGGCGCGAUAGAGCCAACGUUCUCAACUAUGACACCCAAAACGCGUGCUCCGUUGAAUGGAGUUUAUCAUG [C35U G42C C76A C93A G117C] and GGAUCUUCUCGAUCUAACAAAAAAGACAAAUCUGUCACAAAGCUUGAGAGCAUCUUCGGAUGCAGAGGCGGCAGCCUUCGGUGGCGCCAUAGCGCCAACGUUUUCAACUAUGACACGCAAAACGCGUGCUCCGUUGAAUGGAGUUUAUCAUG [C35U G88C C103U] cannot be ordered by “polymerase ribozyme fitness (log ratio)” value: no more than -4.2 for the first, no more than -4.2 for the second.

Compared with GGAUCUUCUCGAUCUAACAAAAAAGACAAAUCUGUCACAAAGCUUGAGAGCAUCUUCGCAUGCAGAGGCGGCAGCCUUCGGUGGCGCGAUAGCGCCAACGUUCUCAACUAUGACACGCAAAACGCGUGCUCCGUUGAAUGGAGUUUAUCAUG [C35U G59C], GGAUCUUCUCGAUCUAACAAAAAAGACAAAUCUGUCACAAAGCUUGAGAGCAUCUUCGGAUGCAGAGGCGGCACCCUUCGGUGGCGCGAUAGCGCCAAUGUUCUCAACUAUGACACGCAAAACGCGUGCUCCGUUGAAUGGAGUUUAUCAUG [C35U G74C C99U] is lower in “polymerase ribozyme fitness (log ratio)” value: 0.0057 for the first, -4.12 for the second.

Compared with GGAUCUUCUCGAUCUAACAAAAAAGACAAAUCUGUCACAAAGCUUGAGAGCAUCUUUGGAUGCAGAGGCGGCAGCCUUCGGUGGCGCGAUAGCGCCAACGUUCUCAACUAUGACACGCAAAACGCGUGCUCCGUUGAAUGGAGUUUAUCAUG [C35U C57U], GGAUCUUCUCGAUCUAACAAAAAAGACAAAUCUGUCACAAAGCUUGAGAGCAUCAACGGAUGCAGAGGCGGCAGCCUUCGGUGGCGCGAUAACGCCAACGUUCUCAACUUUGACACGCAAAACGCGUGCUCCGUAGAAUGGAGUUUAUCAUC [C35U U55A U56A G92A A110U U135A G152C] is lower in “polymerase ribozyme fitness (log ratio)” value: 0.194 for the first, no more than -4.2 for the second.

Compared with GGAUCUUCUCGAUCUAACAAAAAAGACAAAUCUGUCACAAAGCUUGAGAGCAUCUUCGGAUGCAGAGGCGGCAGCAUUCGGUGGCGCGAUAGCGUCAACGUUCUCAACUAUGACACGCAAAACGCGUGCUCCGUUGAAUGGAGUUUAACAUG [C35U C76A C95U U148A], GGAUCUUCUCGAUCUAACAAAAAAGACAAAUCUGUCACAAAGCUUGAGAGCAUCUUCAGAUGCAGAGGCGGCAGCCUUCGGUGGCGCGAUAGCGUCAACGUUCUCAACUAUGACACGCAAAACGCGUGCUCCGUUGAAUGGAGUUUAUCAUG [C35U G58A C95U] is higher in “polymerase ribozyme fitness (log ratio)” value: no more than -4.2 for the first, -0.16 for the second.

Compared with GGAUCUUCUCGAUCUAACAAAAAAGACAAAUCUGUCACAAAGCUUGAGAGCAUCUUCGGAUGCAGAGGCGGCAGCCUUCGGUGGCGCGAUAGCGCCAACGUUCUCAACUAUGACACGCAAAACGCGUGCUCCUUUGAAUGGAGUUUAUCAUG [C35U G133U], GGAUCUUCUCGAUCUAACAAAAAAGACAAAUCUGUCACAAAGCUUGAGAGCAUCUUCGGAUGCAGAGGCGGCAGCCUUCGGUGGCGCGAUAGCGCCAACGUUCUCAACUAUGACACACAAAACGCGUGCUCCGUUGAAUGGAGGUUCUCAUG [C35U G117A U144G A147C] is higher in “polymerase ribozyme fitness (log ratio)” value: -3.79 for the first, -0.649 for the second.

For GGAUCUUCUCGAUCUAACAAAAAAGACAAAUCUGUCACAAAGCUUGAGAGCAUCUUCGGAUGAAGAGGCGGCAGCCUUCGGUGGCGCGAUAGCGCCAACGUUCUCAACUAUGACACGCAAAACGCGUGCUCCGUUGAAUGGAGUUUAUCAUG [C35U C63A], the “polymerase ribozyme fitness (log ratio)” value was -0.573.
